Experimental data reported in patent publication US20160017295A1.

Columns and labels:
Experiment in all cases: cell-based or functional assay
[1] = molecular target: Variant 1.45 (AAV2 capsid with N312K, N449D) (AAV2 (adeno-associated virus type 2)) (UniProt P03135)
[2] = molecular target: wild-type AAV1 capsid (recombinant AAV-GFP vector) (AAV1 (adeno-associated virus type 1))
[3] = molecular target: SM 100-3 variant AAV capsid (Adeno-associated virus 2 (isolate Srivastava/1982) (AAV-2)) (UniProt P03135)
[4] = molecular target: wild-type AAV2 capsid (recombinant AAV-GFP vector) (AAV2 (adeno-associated virus type 2)) (UniProt P03135)
[5] = molecular target: SM 10-2 variant AAV capsid (Adeno-associated virus 2 (isolate Srivastava/1982) (AAV-2)) (UniProt P03135)
[6] = molecular target: variant γ4.3 (AAV2 capsid with N312K, N449D, N551S, I698V) (AAV2 (adeno-associated virus type 2)) (UniProt P03135)
[7] = molecular target: SM 100-10 variant AAV capsid (Adeno-associated virus 2 (isolate Srivastava/1982) (AAV-2)) (UniProt P03135)
[8] = molecular target: SM 10-8 variant AAV capsid (Adeno-associated virus 2 (isolate Srivastava/1982) (AAV-2)) (UniProt P03135)
[9] = molecular target: wild-type AAV8 capsid (recombinant AAV-GFP vector) (AAV8 (adeno-associated virus type 8))

Substance: human IVIG (Gamimune N, 10% Human IVIG, Bayer)
- enhanced resistance to IVIg compared to wild-type AAV2 [1]: 1.23 fold
- Fold Resistance Relative to AAV2 [2]: 1.76 fold
- Neutralizing IVIG concentration mg/ml (reduces gene delivery efficiency to 50%) [2]: 0.026 mg/mL
- Fold Resistance Relative to AAV2 [3]: 4.94 fold
- Neutralizing IVIG concentration mg/ml (reduces gene delivery efficiency to 50%) [3]: 0.074 mg/mL
- Fold Resistance Relative to AAV2 [4]: 1 fold
- Neutralizing IVIG concentration mg/ml (reduces gene delivery efficiency to 50%) [4]: 0.015 mg/mL
- Fold Resistance Relative to AAV2 [5]: 7.52 fold
- Neutralizing IVIG concentration mg/ml (reduces gene delivery efficiency to 50%) [5]: 0.113 mg/mL
- enhanced resistance to IVIg compared to wild-type AAV2 [6]: 3.1 fold
- Fold Resistance Relative to AAV2 [7]: 4.39 fold
- Neutralizing IVIG concentration mg/ml (reduces gene delivery efficiency to 50%) [7]: 0.066 mg/mL
- Fold Resistance Relative to AAV2 [8]: 3.41 fold
- Neutralizing IVIG concentration mg/ml (reduces gene delivery efficiency to 50%) [8]: 0.051 mg/mL
- Fold Resistance Relative to AAV2 [9]: 6.11 fold
- Neutralizing IVIG concentration mg/ml (reduces gene delivery efficiency to 50%) [9]: 0.092 mg/mL
